Data taken from a protein production outcome set (Wang et al. 2014).

Test: label from the status in PepcDB records

Sequence	protein production
MLLAYSMKVVYHLFSGGKDSSLAAWILKKLGYEVKLITITFGVLDNWKFARETAEILGFDHEVIEMPIGILEKATEMCIKEGRAGNAIQYIHERALEYIASREEVKRISDGTRRDDRVPFLDLSKARSLEDRYNVAYIRPLLGLGYKTIRELVNEIFVVVEDESEKVQKGDYETELRELIRRKGHDPSQIFPKRHVQSRVVGLR	not failed
MLLDVKFTKNTCTKLIGLWLKFFLFYSLLPFSTSAQEASFRFKRLGLEDGLSQISVNGIAQDVNGFIWFATQDGLNKYDGYQITTYRHQPSDPNSIINNHIHSIFKDSKHNLWIGSYGGLSKYEPKTDNFTHYNSPSLNDSDGKVGYIQSLFEDSDGELWLSSNMGLYRYSIDTNTYILYLPDDNKPNSVIHSEIKSIAEDSIGNIWIGTTIGVSKYNKRNNTFTNYQHSPENPHSLSNNFVLKIYKDSQNNLWFGTFGGGLDRYDNDTSKFVHHRTNTQNKNSLGNNYIRTILEDSAGMLWLGTNNGLYAFDSSKLIFQRFRHSVNDRHSLSHDVIYSLFQDKDGSLWAGTLGGGVNLFRPSTNVFKHYKSNPNNPESLNANMVYAIYDDDEYVWVGTSGGGLNKLNKTTGKFSNFTEPETSVGLGLNKVNYIIKASEAELWLSTNSDGLLKYNKNTGNITQYKHHPDDRNSLSNNRARGLAIDKEGNLWIGTAGGGLNKLDPISGQFTHFMPDTDNPNSISTNFIRCLLYDSKGRLWTGSYGQGLNRFDFDTQTFINFNKDSVKEPILSNKFIRSIFEDKSGNIWVLTNGGIIKYDESKGSFHSYTTTDGLPSNVVYGALEDQKNNLWLSTNNGLSKFNPQNITFENYTKEEGIQENEFNTGSFFKNKTGEMYFGGINGFTLFHPDKIKKDKTIPTVSFTNLLLYNDAIAIGESERFSSHISSTNALNFAHNDDVITFEFSALSYSQANNISYRYQLQGFSDNWIETDHNHRRATFTNLSKGDYILKVKASNRNRSWGEETTDLRITIAAAYWETTWFRGLLLAIGFIVFVIAIKWREKALNNQNLVLDIMVKERTKELESSQEYSNKLEKLVQKRTLNLQKANTALEQSSITDALTGIRNRRFLDQQLSSDWAIQSRNNLPLSILMIDIDYFKKYNDYYGHQQGDECLQKIAKEIQSVINRPTDNLCRYGGEEFVVITYNDAEGAKHIAKLILKKLDELALVHLTSDKGIVSVSIGLGTMVPSIEVAPARLLKYADDALYQAKNNGRDQLC	failed
MLLHLSDLHFGTEKPECLTAIEDFCRQHRPEVIVVSGDLTQRARFIQFYNCKQFLESLNVPYLVVPGNHDIPLYHLWNRFFSPFVRYQFFFGELEPTLETEHFFIVGVNSIRRRYHTRGYISLEQIQKTNEILKQAPSHKLKLVVLHQPFYTPPDQPHGIKDCPVLGRMALDNWSKSGLFGVLHGHLHKTAVYDLTQIYQLRVDESVYDIHAGTATSYRLYKNLPNSFNVILNDGRVEHYWFDPASKAFVLKTDLYEK	failed
MLLISKKSALAAASTTLFVLLWSSGAIFSKWGLAHASPFAFLLLRFVIALIGLMLLAPLLKLRLPRGRRAMGFAVATGLVLLGAYQIFYILALDLKVTPGVMATIMGVQPILTVVLMERQRSWSRLFGLSLGLAGLVMVVYQSIGLAGMSITGMLCGLLALVSMTAGSIMQKRITDNPLGTLPVQYLAGLLLCALFVPFQPFHFEHSAGFVIPLLWMGLVVSVLATLLLYRLIAQGNLVNVTSLFYLVPAVTALMDYLFFGNRLGLLSLVGMGLIIVGLVFVFRKQP	not failed
MLLITPDELKSYSVFESVKTRPDELLKQDILEATADIILKVGHDFSDAEYIPLPETVRLALLKLSQFYALINGDESIIKGYTTEKIGDYSYTLGDGSPLQKPDVYALIKDYVKPADPDLEGIEAKVRMRSILEHHHHHH	not failed
MLLKPDQRLKLDDTDDNLFYAYPRFVTHVDEGFIQRLTDLYRERLQPNTRILDMMSSWVSHLPEEIKFAHVEGHGLNAEELKRNPRLNHYFVQNLNENPGLPLPDQEFDAVLNCVSVQYLQYPEAVFSEIHRILKPGGVAIISFSNRMFYQKAIQAWRDASEPGRLELVKRYFASVPGFSTPEIIARKSTAPNFLQWLGAPGGDPFYAAIAHRKLEHHHHHH	failed
MLLKSIIPCMVKAFKFRLYPTTAQAVQLNQHIGSCRFVYNWALDQKIKTYEQTGKSISRFDLNKLIPTLKASNEWLGEVNSQSLQGMTKQVESAFTRFFRGKTGFPKFKSKKNPIQSFPVPQHYSVDFEKNTIKLPKIEPIKAVFHRKFEGELKTATVSRTCKGHYYISILVEDGKELPVKEAFAESTTIGIDVGIKDFAVLSNGEKIENPKYLKNSLKRLKVLQKRVSKKQKGSKNRAKAKQRLAVLHDKITNQRNDFQNKLSFKLISENQAVALETLNVKGMVKNHHLAQSISDSAWSSFVTKLEYKAEWFGKTILRIGQFEPSSKLCSVCGYHNKELQLKDREWTCPDCKTKHDRDINAAINIKKFALVDQNLIGLLEHHHHHH	not failed
MLLRSPSYAGKAAQAQEGDAYGVYQLATLLIGMDAEDETSCLLAADALYRLGRLDDAHKSLLVALSQRPQAAPVLVRLALLQLRRGFCYDANQLVKKVAQSGDTACLQHMLDIFHHEDLQLLQDHCHTRALSILRARPGGSDSEAHTREAIAYLSLAIFAAGSGGSESLLVRARCYGLLGQKKTAMFDFNAILREEPGNVKALCGRALVHLALDQLQEAVDDMVSALKLDPGTVTPEILSLKTEVQLPLTQGLYTRCRVLLNQCLHTGVPLREEDTQGLLATGKALIRINATQPSWRLLLTDILTGLGKYQEAGTHLQEALHLTPSSEAAQARQGLLQLKKGDVSAAAHGLQCLAERDTQDLGFLLRLLDSPERQSLVQTAAKEASNILDLGNPGQALSYCSLAILAGGNNPYHLRLRVACLTQLREYDRALRDLDRVLQHPAEDSDLPRRSEDFCTRGRLLLSLGDKDGAAGAFTQALALAPAQAQNSLLEQPGQAMTASVFLIHGQRCLEEQHFEEAWTAVQNGLLVDPSHSGLKKLKLRTRKVATSGCRLH	failed
MLLSHIMGMDYIMSIITLALLLLAEILVAIILIGVSIEICSYGWKKSNGIKYSCLLLSLLLGTASILGLLAAPAYFFIQLTEKAL	failed
MLLSVIITAQGRKGYVMQAVRSVLSQNIPKEDFEIIVSKDFKDDVIDEFLDGRAIVLNENHIRSGSRVASAVLQSSGKILVFLDDDDLFYPGKLREVKIVFSEMGVDYFKNSVKPVAESGDTVSYYQPAIKSDIFVKEPNEQDIRKLLKLRAGFNSSSISLKKDILVGYLDVLSKINLAVDSFYFFLYMSHSRPIYYSKKTLSLYRVLSKSTSRDVRNINAYAEFKSKFYELYSRDFETISEMASDGPCSKLAKTEFHLQMAYKWIFNTYRKEERPRMLHTLASSIYSHDPFIALPWPSFMKKIVQRREYFREKKLLSENTELEHHHHHH	failed
MLLTLALVILFATIMVFFSQEFIRTFKKILAIRGAKLLIPLGIASWLIYNFDYLFIWVIYYIREVLQAVLAFLTRIMPFKPYSTSIALIILLTTVSVGPVLLLDLIYRKRTYKGYAYPYLTSTLILIFCTLILLVVS	failed
MLLTLPAPLRRALWAQVRRELPRECVGALGGWVRGEQVQAHALYPLPNVAADPEREYLADPGDLLRVVRAMQREGLDLVALYHSHPHGPAAPSASDRRLAAYPVPYLIADPAAEVLRAYLLPGGEEVEVRSADESNLEHHHHHH	failed
MLMSEIGQIAAILATAREVAVATHIIPDGDCLGSMLGLTLALRKRGTSVIAINADPVPEMFQYLPGQETIIDPDQVTSMPPLLVMVDCTDMERAGKGFSNWQQRVEKIINIDHHVSNTRFGHLNLVDSRAAATAELIYAVLEQIPATFTPEVATCLYTALATDTGSFQYENCTARTLRLAASLLEKGADMPLIREHLWESKPLNSIRLLAATLPTLTLAYEGRVAWMTVSRAALEANGARPEHAEGLVNYPRSIAGVEVGMLFRELPDGKVKVSLRSKKIVDVNRVAALFGGGGHRRAAGCTLDGDLDTVVARVVAAAGEAL	failed
MLMVFALLVSLAFASYHPDDAVVLRSADWSEVVLNPQSAQADGPVQNVLGLLGAQLAEACVPGFIGYGVLLISGLLMVWGYAVFRHASLRRLLYPSLLTAFSAFILSCVVGWVHHTVDAPLRAWAGLVGIGTAGWMQNVFGEVGSFILLLLAGAVLLLLVVDHDIQRTVDRVIRAARRIGAGVSAAGAYIRDQWSRARAHAPEPKATSPASDPSSSASASGSPSASSPEPPSSPPAEESTSSPPPARTRPEDSGAQTPSVRRNDLFRPGRDPAPSATDDNTASPEPAPDSSARTSDADPPEDDAPKDIPDETTASTPAEESPATDSPPPSRPADENASSDEPAAPAPDEPPPDASDGPDDDVSMTIQEQVEEETTDEIERTAELPDDFEYEPPSLDLLDESVDTDPTINREELEENKRVLLDKLDMYNIEIEEINAVVGPTVTRYELTPAPGIKVSRIKSLEDDLAMAMAAPGIRMIAPIPGKSAVGVEIPNRNRELVRLRDVIGTRKFQDTDLKLPLPLGKNIEGEVHVGDLATMPHLLIAGATGSGKSVGLNSIITGLIYACHPANLRFVIIDPKKIELQQYTALETQFVAVPEDIDQTVITDIDEASGVLKSVEREMETRYDLLSDASVRNITGYNEKFQAGELDPTEGHRHMPYLVVVVDELADLMMAAGDDVEGPISRLAQMARAVGIHLILATQRPSVDVVTGVIKANFPSRIAFEVASRVDSRTILDQGGAEDLVGNGDMLFLSGSDLKRLQGPFVSVEEVEEVVDYVADQPGVTPYTLPSLQDAGHGPDETLGVEDTDEKFEEAARVIVRRQQGSVSLLQRKLAVGYTRAARIVDQLEEAGIVGPFNGTKARDVLVDDEQALDDLLHGEDADEADPEEA	failed
MLNALKNRLRVWYDPEMKAIARIIREMNSKGGDDLVVTECNKVFVDRLRVFPIALKMDFWEHHFELEGFSDFPEIGGDILDFGCGSGHLDVYLARRGFTVTGVDLSPVGIAIASFIRENEAADVKKRLLFFVADVTADLPPRQFDAAWSAHVFEHIKNPGPVLAGLKNWIKPGGSLLISVPFGRAYDDPGHVNHFYSEADLQHYLGGHISVERIKIYRDHQVIRALCKNDGDGKNDR	failed
MLNFKTFSDLRPKKTRAFVFVKILRLWNWPPNYFGEEPTMILVDEKGHRIDAKSSRHAYKEEMISTLREGKWYILSNFKVVVANPLERFSTHVFQIEFLKKTTMEPVTPKSRYHFIECVDFHTIKHAAPIQKKFVVDAMGVIESVSPIGKIPWVARDWESDFASRYLVFTLKDSMHKYIKCVAVGSSCEEFERKWYKKISEPNFKMEPVMIILRFWKISEFEGKPCLISVYGCSKVHIDPNFRGIDKNNYL	failed
MLNKVNLADIRSFVLIAQLGNFTKAAEALSVSRSHVSRQISGLEAQMGVTLLNRTTRTLRLTHAGERFYHDCEKALRDIDQALIAAVDDTQEIRGVIRVNCVGGYIGEDIIAKYVCEFMQQYPNVSIDLDFSSPRIDLIEDQFDVAFRMGELDDAGFVARKLMTVDMVTLASPSYVQQYGMPIHPKELAEHRTLTGSVARWSYRKADNPNDHTDVVVKGNLRCKNGRALVMGALHGNGIIRVPLSYCAEEVELGQLIKVMPNWEIPSVPFSAIFHRDRYQPKRLRTFIDFIKQKFEDS	failed
MLNMQRLQTVLLQCAGWLLYMSLLMLIALALPADIFDSQSKHFIFLVGAVGIWRYSMGATHFIRGMIFLYGVYPYLRRKVQKMGNATDPSHVYLMVTSFRIEALTTAQVYSSVIREAINCGFPTTVVCSLVEMSDELLVKSLWAKYNPPAHVKLDIVRIAGTGKRDGLAYGFRAISRMLPDENAVVAVIDGDTVLADGVVRKTVPWFKLFPNVGGLTTNEFCEVRGGYIMSEWHKLRFAQRHINMCSMALSKRVLTMTGRMSMFRASVVTNPEFIADVESDSLMHWRLGRFKFLTGDDKSSWFSLMRLGYDTFYVPDAAINTVEHPPEKSFLKASRKLMYRWYGNNLRQNSRALGLGLRRLGLFTSIVLFDQRVSMWTSLLGLTVAVIASLKFGMAFLLVYLLWIGITRLILTIMLLCSGHNVGPAYPLILYYNQIIGALMKIYVFFRLDKQSWTRQPTALKRDLASFQQWFNTWSSRTMTFSAASIFVAVLFMVV	failed
MLNRVFLEGEIESSCWSVKKTGFLVTIKQMRFFGERLFTDYYVIYANGQLAYELEKHTKKYKTISIEGILRTYLERKSEIWKTTIEIVKIFNPKNEIVIDYKEI	not failed
